In the nanobody polyreactivity screen of Harvey et al. (2022):

Assay: yeast display, Sf9 membrane polyspecificity reagent, FACS + sequencing; frameworks hold sequencing errors
Method in brief: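 A nanobody's polyreactivity label depends on the gate it was sorted from. Yeast display cells were stained with 10% biotinylated, detergent-solubilized Sf9 membrane reagent for 1 hour at 4 °C, enriched on streptavidin microbeads and sorted by FACS. The low and high (top ~1%) gates were set on anti-HA fluorescence for expression and streptavidin fluorescence for reagent binding.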

| Sequence | polyreactivity (PSR sort gate) |
| --- | --- |
| QVQLVESCGGLVQAGGSLRLSCAASGITIDYYAMGWYRQAPGKERELVAAISSVGNTNYADSVKGRFTISRDNAKNTVYLQMNSLKPEDTAVYYCAARAYGQRLYRVWSGYGYWGQGTQVTVSS | high polyreactivity |
| QVQLVESGGGLVQAGGSLRLTCAATGRTFYNGMGWYRQAPGKERELVAAISRGGSTYYADSVKGRFTISRDNAKNTFYLQMTSLKPEDTAVYYCAIDQSRYVYVTLRGGYWGLGTQVTVSS | low polyreactivity |
| QVQLVESGGCLVQAGGSLRLSCAASGYTFYVYAMGWYRQAAGKVRELVSAISGGSNTYYADSVKGRFTISRDNAKNTVYLQMNSLKPEDTALYYCAKSSTTYRQRARYDYWGHGTQVTVSS | high polyreactivity |
| QVQLVESGGGLVQAGGSLRLSCAASGITLTYYAMGWYRQAPGKERELVAAITWNGGHTYYADSVKGRFTISRDNAKNTVYLQMISQKPEDTAVYYCAAELWAYTWYWHSDYWGQGTQVTVSS | low polyreactivity |
| QVQLVESGGGLVQAGGSLRLSCAASGLIFYPYAMGWYRQAPGKERELVAGISSSGDSTYYADSVKGRFTISRDNAKNTVYLQMNSLKPEDTAVYYCNADGWYFEYWGQGTQVTVSS | low polyreactivity |
| QVQLVESGGGLVQAGGSLRLSCAASGSTFTSNAMGWYRQAPGKERELVAAISSGGSTSYADSVKGRFSISRDNAKNTVYLQMNSLKPEDTAVYYCAVGVLYAGYFYRYRYYYWGQGTQVTVSS | high polyreactivity |
| QVQLVESGGGLVQAGGSLRLSCAASGSTLYCNAMGWYRQAPGKERELVAAISRSGGSTYYADSVKGRFTISRDNAKKTVYLQMNSLKPEDTAVYYCAARRYVPHTEYYYWGQGTQGTVSS | low polyreactivity |
| QFQLVDSGGGLVQAGGSLRLRSAASGRTFYPYVMAWYRQAPGKEREIVAAISYTGCSTYYADSVKGRFTISRDNAKNTVYLQMNSLKPEDTAVYYCNRAKYYSGGYRYHVDYWGQGTQVTVSS | high polyreactivity |
| QVQLVESGGGLVQAGGSLRLSCAASGRIFGGNAMGWYRQAPGKERELVAAITWGGSTNYADSVKGRFTISRDNAKNTVYLQMNRLKPEDTAVYYCNADPVRDTYWHPETQQWYGYWGQGTQVTVSS | low polyreactivity |
| QVQLVESGGGLVQAGGSLRLSCPASGRTFVVYAMGWYRQAPGKEREFVAAITTRGNSTYYADSVKGRFTISRDNAKNTVYLQMNSLKPEDTAVYYCAAVLRLSTLTTDFGYWGQGTQVTVSS | high polyreactivity |
| QVQLEESGAGLVQARGSLRLSCAASGRTFIWNAMGWYRQAPGKERELVAAISSRGGRTYYADSVKGRFTISRDNAKNTVYLQMNILKPEDTAVYYCAAYYITFIGRGYGYWGQGTQVTVSS | high polyreactivity |
| QVQLVESGGGLVQAGGSLRLSCAASGFIFSYYAMGWYRQAPGKERELVAAISGRGGSTYYADSVKGRFTISRDNAKNTVYLQMNSLQPEDTAVYYCAADSPWGGGYFVLYNYWGQGTQVTVSS | low polyreactivity |
| QVQLVESGGGLVQAGGSLRLSCAASGYTFGSNAMGWYRQAPGKERELVAAISNGGSTNYADSVKGRFTISRDNAKNTVYLQMTSLKPEDTAVYYCAAASRWHIGYWRYDYWGQGTQVTVSS | low polyreactivity |
| QFQLVESGGGLVQAGGSLRLSCAASGSILVPNDMGWYRQAPGKEREFVAAITESDGSTYYADSVKGRFTISRDNAKNTVYLQMNSLKPEDTAVYYCASDSTGVTFVHFDYWGQGTQVTVSS | low polyreactivity |
| QVQLVESGGGLVQAGGSLRLSCAASGFIFADYMGWYRQAPGKERELDASISSTGSSTYADSVKGRFTISRDNAKNTVYLQMNSLKPEDTAVYYCAATGVWYSWYEYASEYDYWGQGTQVTVSS | high polyreactivity |
| QVQLVESGGGLVQAGGSLRLSCAASGIIFIYYVMGWYRQAPGKERELVAAISRSGGSTYYADSVKGRFTISRDNAKNTVNLQMNSLKPEDTAVYYCAARRITSTDEYYWGQGTQVTVSS | high polyreactivity |
| QVQLVESGGGLVQAGGSLRLSCAASGRIFAGYAMGWYRQAPGKERELLATISSGGSTYFAHSVKGRFTISRDNAKNTVYLQMNSLKPEDTAVYYCSAEYGTRQYSCYYKLFNYWGQGTQVTVSS | low polyreactivity |
| QVQLVESGGGLVQAGGSLRLSCAASGSTFTWNVMGWYRQAPGKERELVASITSGDSTYADSVKGRFTISRDNAKNTVYLQMNSLKPEDTAVYYCNVGYDQEKYGYWGQGTQVTVSS | low polyreactivity |
| QVQLVESGGGLVQAGGSLRLSCAASGFTFGRYAMGRYRPAPGKVRELVATITRTGSTNYADSVKGRFTISRDNAKNTVDLQMHSLKPEDTAVYYCNAVYSACRYVKYDYWGQGTQVTVSS | low polyreactivity |
| QVQLVESGGGLVQAGGSLRLSCAASGRTFNPYSLGWYRQAPGIVRELVAAISYRGGSTYNADSVKGRFTISRDNAKNTVYLQLNSLKPEDTAVYYCAKRGYASGSKWDYGYWGQGTQVTVSS | high polyreactivity |
| QVQLVESGGGLVQAGGSLRLSCAASGFTFYRYVMGWYRQAPGTERELVAAITGGGRTYYADSVKGRFTISRDNAKNTVYLQMNSLKPEDTAVYYCNKAVPAWGLFDYWGQGTQVTVSS | low polyreactivity |
| QVQLVESGGGLVQAGGSLRLSCAASGFTFNYYAMGWYRQAPGKERELVAGITRSGVSTNYADSVKGRFTISRDNAKNTVYLQMNSLKPEDTAGYYSAREEGRRYRGWPYVFAPQHDYWGQGTQVTVSS | high polyreactivity |

| Sequence | polyreactivity (PSR sort gate) |
| --- | --- |
| QVQLVESGGGLVQAGGSLRLSCAASGRTFAPNTMGWYRQAPGKERELVATITVSGGITYADSVKGRFTISRDNAKNTVYLQMNSLKPEDTAVYYCAARTPGWYLPRDYWGQGTQVTVSS | low polyreactivity |
| QDQLVESGGGLVQAGGSLRLSCAASGFTFRRYAMGWYRQAPGKERELVAAISYTGGITYYADSVKGRFTISRDNAKNTVYLQMNSLKPEDTAVYYCAAESVWTWDYTTAGMDYWGQGTQVTVSS | high polyreactivity |
| QVQLVESGGGLVQAGGSLRLSCAASGFIFDTYAMGWYRQAPGKERELVAAISWTGTDTYYADSVKGRFTISRDNAKNTVYLQMNSLKPEDTAVYYCAARSRYKYSPSGDYWGQGTQVTVSS | high polyreactivity |
| QVQLVESGGGLVQAGGSLRLSCAASGFTFPEYAMGWYRQAPGKERELVAAISSGDSTNYADSVKGRLTISRDNAKNTVYLQMNILKPEDTAVDYCAADYYDYYYEYEYWGQGTQVTVSS | low polyreactivity |
| QVQLVESGGGVVQAGGSIRLSGAASGRIFGEYAMGWYRPAPAKERELGAAISGGGSTYYADSVKGRFTISRDNAKNTVYLQMNSLKPEDTAVYYCAVYSVYHEYDYGGQGTQVTVSS | low polyreactivity |
| QVQLVESGGGLVQAGGSLRLSCAASGITFSYYAMGWYRQAPGKERELVAAINSSGGSTYYADSVKGRFTISRDNAKNTVYLQMNSLKPEDTAVYYCAADSFLYPYAEFGYWGQGTQVTVSS | low polyreactivity |
| QVQLVESGGGLVQAGGSLRLSCAASGRILHRYVMGWNRQAPGKERELVAAISSGGSTTYADSVKGRFTISRDNAKNTVYLQMNSLKPEATAVYYCAKYSFWRTSRMDFWGQGTQVTVSS | low polyreactivity |
| QVQLVESGGGLVQAGGSLRLSCAASGRTFRYNVMGWYRQAPGKERELVAAITYSGGRTYYADSVKGRFTISRDNVKNTVYLQMNSLKPEDTAVYYCAALSAPGYGRYNYWGQGTQVTVSS | high polyreactivity |
| QVQLVESGGGLVQAGGSLRLSCAASGSIFGKYAMGWYRQAPGKERELVAAITWSGGSTRYADSVKGRFTISRDNAKNTVYLQMNSLKPEDTAVYYCAAPSTESKYYYWGQGTQVTVSS | high polyreactivity |
| QVQLVESGGGLVQAGGSLRLICAASGGIFGINAMGWYRPSPVKERELVAAINLSGGRTYYADSVKGRFTISRDNAKKTVYLLMNSLKPEDSAVYYCAAYYGYSLYGHYEYWGQGTQVTVSS | high polyreactivity |
| QVQLQESGGGLVQAGGSLRLTCAASGSISYPRTMGWYRQAPGKEREFVAGIGVGGTTYYADSVKGRYTISRDNAKNTVYLQMNSLKPEHAAVDYCAVAAYYDKYYVYWGQGTQVTVSC | low polyreactivity |
| QVQLVESGGGLVQAGGSLRLSCAASGSIFNVYGMGWYRQAPGKERELVAAISKSGTSTSYADSVKGRFTISRDNAKNTVYLQMNSLKPEDTAVYYRNAGYRTWWGKKYDYWGQGTQVTVSS | low polyreactivity |
| QVQLVESGGGLGQAGGSLRLSCAASGFIFQANAMGWYRQAPGKERELVAAIDDGDSTYADSVKGRFTISRDNAKNTVYLQMNSLKPEDTAVSYCAPRRNRSYDYWGQGTQVTVSS | low polyreactivity |
| QVQLVESGGGLVQAGRSLRLSCAASGFTFQSYDMGWYRQAPGKDRELVAAISWSGASTYYADSVKGRFTISRDNAKNTVYLQMNSLKPEDTAVYYCAAGEPTWWGYANDYWGQGTQVTVST | high polyreactivity |
| QVQLVESGGGLVQEGGSLRLSCAASGSIFYRNAMGWYRQAPGKERELVAAISSDGSTNYADSVKGRFTISRDNAKNTVYLHMNSLKPEDTAVYYCAAPWTQILDYWGQGTQVTVSS | low polyreactivity |
| QLQLVESGGGLVQAGGSLRLSCAASGRTFFKYVMGWYRQAPGKERELVAAISYRSGSTYYADSVKGRFTISRDNAKNTVYLQMNSLKPEDTAVYYCAKEPPPVKGDYWGQGTQVTVSS | low polyreactivity |
| QVQHVESGGGLVQAGGSLSLSCADSGFIFRYYAMGWYRQAPGKERELDAAISWSGGSTYYADSVKGRFTISRDNSKNTVYLQMNSLKPEDTAVYYCAADRYAILFYAEDYWGQGSQVTVSS | low polyreactivity |
| QVQLVESGGGLVQAGGSLRLSCAASGITFRFYAMGWYRQAPGKERELVAVISRGGGTTYYADSVKGRFTISRDNAKNTVYLHMNSLKPEDTAVYYCNAVIAWYRSDEYDYWGQGTQVTVSS | high polyreactivity |
| QVQLEESAGGLVQAGGSLRLSCAASGRIFTGSNVMVWYRQSPGKETEFVAVINSGGGSTYYADSVKGRFTISRDNAKNTVFLQMNSLKPEDTAVYYCAADVGGWGYYYWGQGTQVTVSS | low polyreactivity |
| QVQLVESGGGLVQAGGSLRLSCAASGFTFAFNDMGWYRQAPGKERELVAAITWSGGSTYYADSVKGRFTISRDNAKNTVYLQMNSLKPEDTAVYYCNADLLGYVYLNLPVGSWGQGTQVTVSS | low polyreactivity |
| QVQLVESGGGLVQAGGSLRLSCADSGFIIFRYAMGWYRQAPGKERELVAAITDDGSTYADSVKGRFTISRDNAKNTVYLQMNSLKPEDTAVYYCNVQSKSSYWWFGYDYWGQRTQVTVSS | low polyreactivity |
